T1: Stx6 (3-110) (human, UniProt O43752 3-110)
T1 sequence (looked up): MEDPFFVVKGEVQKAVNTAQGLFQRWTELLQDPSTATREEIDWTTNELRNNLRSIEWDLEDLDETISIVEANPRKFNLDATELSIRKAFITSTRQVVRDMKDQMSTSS

T2: Stx10 (1-110) (human, UniProt O60499 1-110)
T2 sequence (looked up): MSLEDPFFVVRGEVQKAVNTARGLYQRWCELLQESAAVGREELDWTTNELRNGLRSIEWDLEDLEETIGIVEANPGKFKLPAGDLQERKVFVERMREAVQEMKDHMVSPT


Assays:
Stx6 (3-110) [1] = target: T1, Stx6 (3-110); test: crystal structure
Stx6 (3-110) [2] = target: T1, Stx6 (3-110); test: ITC
Stx10 (1-110) = target: T2, Stx10 (1-110); test: ITC

Row | binding result (Stx6 (3-110) [1]) | Kd (Stx6 (3-110) [2]) | stoichiometry N (Stx6 (3-110) [2]) | Kd (Stx10 (1-110)) | stoichiometry N (Stx10 (1-110)) | Binder
1 | binds |  |  |  |  | AHGMLKLYYGLSEGEAA [Ang2 peptide 33AHGMLKLYYGLSEGEAA49]
2 |  | 5.6 ± 0.7 µM | 0.8 | 6.5 ± 0.8 µM | 0.7 | Ang2 (1-69) (domain or fragment, human, UniProt Q9UID3 1-69, looked up) MAAAAAAGPSPGSGPGDSPEGPEGEAPERRRKAHGMLKLYYGLSEGEAAGRPAGPDPLDPTDLNGAHFD
